This data set can be described thus: protein stability index of a GFP-peptide fusion (GPS, HEK-293T) (PSI 1-6); higher = more stable.
[1] abbreviates: treatment: DMSO, c terminus: a fixed tail appended.
Setting [2] is: treatment: MLN4924 1 uM, 8 h, c terminus: a fixed tail appended.
[3] abbreviates: treatment: DMSO, c terminus: native.
[4] abbreviates: treatment: MLN4924 1 uM, 8 h, c terminus: native.

In the supplement of paper PMC10567573 one finds protein stability index data, which are given here for 72 sequences.

± gives the standard deviation.
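Note: 24-mer peptide tiles fused after GFP, lentivirally expressed, FACS-sorted into six equal bins by GFP/DsRed ratio, decoded by Illumina sequencing, PSI is the read-weighted mean bin number.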

Sequence IVLDRALHIPMYFFLAILSCSEIC [OR10K2] registered a protein stability index under setting [1] of 3.1 ± 0.18 and a protein stability index under setting [2] of 3.19 ± 0.29.
The corresponding values for IVSTQITRPSGNNGNRRRRKLRKT [PHTF1] are 4.35 ± 0.35 and 4.46 ± 0.23.
Turning to IVTLRHVLAAKERRCGELKRKLGL [TPD52L3], the protein stability index reads like this: under setting [1], 2.2 ± 0.11; under setting [2], 2.18 ± 0.13.
IWKLNLQTFQWVKLPATMPEPVYF [KLHDC10]: the protein stability index under setting [1] came out at 2.82 ± 0.7 and the protein stability index under setting [2] was found to be 2.63 ± 0.33.
The corresponding values for IWLDNLHCTGNEATLAACTSNGWG [LOXL2] are 2.18 ± 0.31 and 2.27 ± 0.3.
The matching figures for IYAHRVILSACSPYFRAMFTGELA [KLHL20]: 3.16 ± 0.56 and 2.9 ± 0.65.
The matching figures for KAASLARNLAKRRRTYLGGAAGRS [RSPH3]: 3.09 ± 0.34 and 3.56 ± 0.45.
KAFSRSSGLFNHRGIHNIQKRYHC [ZSCAN9] gave a protein stability index under setting [1] of 2.63 ± 0.39 and a protein stability index under setting [2] of 2.45 ± 0.14.
Turning to KAILKNISVLAFSVCFIFTITIGM [SLC29A1], the protein stability index is, setting by setting: under setting [1], 3.19 ± 0.29; under setting [2], 2.96 ± 0.44.
The matching figures for KAKPEPDILEEEKIYAYPSNITSE [TMEM192]: 4.82 ± 0.2 and 4.83 ± 0.2.
The corresponding values for KALLYLPIAPEVEDPEENPYGPPP [RBBP5] are 3.94 ± 0.31 and 4.07 ± 0.42.
The corresponding values for KASNSIISCFNNAPPAKLACPVCS [FAN1] are 2.92 ± 0.15 and 3.1 ± 0.4.
Regarding KDHSSSRPSSPRPQKASPNGSISS [BTBD10], the protein stability index by setting is: under setting [1], 5.1 ± 0.42; under setting [2], 4.71 ± 0.97.
The corresponding values for KDLQKEQKTLQVKCQHYKKKRTEQ [CEP70] are 4.92 ± 0.31 and 4.87 ± 0.032.
The matching figures for KEEGLPEEEPSHVTGREGFPTDAP [ZNF8]: 5.45 ± 0.23 and 5.57 ± 0.3.
KEEKQRRRCKPKKPTRRDASPESP [GNAS]: the protein stability index runs as follows: under setting [1], 5.43 ± 0.18; under setting [2], 5.47 ± 0.11.
In the case of KEENEAESDVKHRTRDYKKTSLAP [PRIM1], the protein stability index worked out at 5.37 ± 0.23 under setting [1] and 5.37 ± 0.41 under setting [2].
With KEGDCAPEEKIWEELSVLEVFEGR [MAGEA6], the protein stability index worked out at 4.96 ± 0.16 under setting [1] and 4.87 ± 0.47 under setting [2].
The corresponding values for KELRDGGEQDTWAGEGAEALARNL [NFE2L1] are 5.26 ± 0.25 and 5.36 ± 0.27.
As for KFENLCKLMKEILDKKVEKVTISN [HSP90AB1], the protein stability index under setting [2] is 2.75 ± 0.38.
KGSFGKVCIVQKNDTKKMYAMKYM [STK32A]: the protein stability index is, setting by setting: under setting [1], 2.49 ± 0.41; under setting [2], 2.41 ± 0.23.
With KHYRFTHAEIIAWIRICRPGSIIG [CDC14A], the protein stability index reads like this: under setting [1], 2.55 ± 0.15; under setting [2], 2.83 ± 0.67.
The corresponding values for KIQLRLAGQKRKHSEGRVEVYYDG [LOXL2] are 3.09 ± 0.33 and 3.88 ± 0.67.
With KISKQFVAPADVRRLLSYCKGRDH [ZSWIM9], the protein stability index reads like this: under setting [1], 2.49 ± 0.32; under setting [2], 2.81 ± 0.27.
KKHAAYAWPFYKPVDAEALELHDY [BRD3]: the protein stability index runs as follows: under setting [1], 2.97 ± 0.39; under setting [2], 2.96 ± 0.38.
With KLEKSIDSYYRLVIHRALDREQVS [PCDHGA10], the protein stability index under setting [1] worked out at 2.55 ± 1 and the protein stability index under setting [2] is 2.48 ± 0.84.
The matching figures for KLQYQLRNVRERIAKNLVEKGILT [GOLPH3L]: 2.17 ± 0.16 and 2.28 ± 0.19.
Consider KLSETFLQIYQYVPKDQRLQAIKA [DLC1], for which the protein stability index was 2.12 ± 0.38 under setting [1] and 2.28 ± 0.44 under setting [2].
As to KNKPKKMGHIKPDLIDVDLIRGST [PHTF1], the protein stability index under setting [1] amounted to 3.8 ± 0.28 and the protein stability index under setting [2] was 4.04 ± 0.2.
Turning to KPLLGSAVLGLLLVLAAVVAWCYY [MYORG], the protein stability index turned out to be 2.11 ± 0.4 under setting [1] and 2.25 ± 0.24 under setting [2].
In the case of KQIVSAVAHCHQSAIVLGDLKLRK [TRIB1], the protein stability index runs as follows: under setting [1], 2.77 ± 0.18; under setting [2], 2.72 ± 0.27.
The matching figures for KQPRKKRGRYRQYNSEILEEAISV [LCOR]: 3.92 ± 0.16 and 3.98 ± 0.13.
For KRGPSSRSGGPPPKKSAPSAVARS [RBMY1A1], the protein stability index by setting is: under setting [1], 4.47 ± 0.12; under setting [2], 4.78 ± 0.39.
The corresponding values for KRIKVPDYKDRSVFGVPLTVNVQR [DLC1] are 3.02 ± 0.42 and 3.09 ± 0.35.
For the sequence KRYESHPVCADLQAKILQCYRENT [CHCHD3], the protein stability index runs as follows: under setting [1], 3.18 ± 0.23; under setting [2], 3.55 ± 0.26.
The corresponding values for KSLDNMPNDEHWKALSRKSTSFRV [FBXO33] are 3.4 ± 0.11 and 3.56 ± 0.21.
With KTQIVCKHFLEAIENNKYGWFWVC [ZC3H15], the protein stability index was determined as 2.62 ± 0.52 under setting [1] and 3.09 ± 0.54 under setting [2].
The matching figures for KTSVEKANAQIQILTRSWEEVSTL [CD207]: 3.48 ± 0.14 and 3.77 ± 0.26.
Regarding KVLRRWVDEEWPKRERGDPSRHF [EDARADD], the protein stability index turned out to be 3.21 ± 0.43 under setting [3] and 3.42 ± 0.2 under setting [4].
For the sequence KVMIFKSSYSLSDMVSNIELPTRI [MIA2], the protein stability index by setting is: under setting [1], 1.88 ± 0.56; under setting [2], 2.17 ± 0.12.
The corresponding values for KVRQLERDNAELENLIRERSQQQE [KRT33B] are 5.11 ± 0.3 and 5.13 ± 0.28.
The matching figures for KVVECLDHARGKSQVALKIIRNVG [CLK3]: 2.24 ± 0.21 and 2.22 ± 0.36.
Take KYFGCELGAQTQFDVKNDRYIVNG [EIF5]: the protein stability index is, setting by setting: under setting [1], 3.08 ± 0.35; under setting [2], 3.27 ± 0.26.
The sequence KYIHRMMQIEFIKQGSMNFRFIPV [TRAF3IP2] returned a protein stability index under setting [1] of 3.659 ± 0.005 and a protein stability index under setting [2] of 2.21 ± 1.1.
For the sequence KYVVSGFDVDHGICIMDAENITTV [WDR88], the protein stability index under setting [1] was determined as 2.28 ± 0.32 and the protein stability index under setting [2] worked out at 2.25 ± 0.25.
On to LAEAKYYLVQGLVEECQAALQNKD [KCTD10], for which the protein stability index under setting [1] worked out at 3.24 ± 0.17 and the protein stability index under setting [2] is 3.38 ± 0.29.
Take LALLNLACMMTITFLPYTFSLMVT [TMEM175]: the protein stability index reads like this: under setting [1], 3.27 ± 0.32; under setting [2], 3.38 ± 0.27.
The corresponding values for LALVTLLSFATRFHRLDEPPHICW [POMT2] are 3.25 ± 0.61 and 3.19 ± 0.22.
In turn, LAPVPTHSTVSELSRSPVATATSC [DUSP5] had a protein stability index under setting [1] of 4.24 ± 0.3 and a protein stability index under setting [2] of 4.17 ± 0.15.
On to LAQLLDTLLAIGTKLPENQAIQMR [INTS4], for which the protein stability index came out at 3.12 ± 0.73 under setting [1] and 2.76 ± 0.5 under setting [2].
The corresponding values for LASGRIILILEGGYNLTSISESMA [HDAC6] are 2.63 ± 0.14 and 2.82 ± 0.79.
Regarding LATLDPLALDREPPPHLLPEKHQV [WDR88], the protein stability index was determined as 4.06 ± 0.22 under setting [1] and 4.24 ± 0.16 under setting [2].
LCAYGFFASLRPSEPFLTPYLLGP [SLC19A2]: the protein stability index reads like this: under setting [1], 2.94 ± 0.32; under setting [2], 2.9 ± 0.56.
Regarding LCCEWLRPEKHTKEQILEFLVLEQ [ZNF232], the protein stability index under setting [1] amounted to 2.23 ± 0.31 and the protein stability index under setting [2] amounted to 2.24 ± 0.27.
In the case of LCKNCFYLSNARPDNWFCYPCIPN [ZMYND11], the protein stability index is, setting by setting: under setting [1], 2.2 ± 0.29; under setting [2], 2.23 ± 0.053.
The corresponding values for LCMDWCKDKRRIVSSSQDGKVIVW [GNB5] are 2.17 ± 0.14 and 2.33 ± 0.16.
Take LDMELGPSQGQETNEVCEQAGGGA [ADAMTSL2]: the protein stability index runs as follows: under setting [1], 5.33 ± 0.52; under setting [2], 5.27 ± 0.54.
The matching figures for LDNSRSILKRRYYRQHCTLELGSY [CTDNEP1]: 2.34 ± 0.45 and 2.42 ± 0.31.
The corresponding values for LDPDTMHARLRLSADRLTVRCGLL [TRIM14] are 2.51 ± 0.16 and 2.48 ± 0.25.
The corresponding values for LDSIIDDRVILSSSTSCLMPSKLF [CRYL1] are 2.71 ± 0.38 and 2.77 ± 0.21.
Consider LEDFFVMSDYRGFGIGSEILKNLS [SAT1], for which the protein stability index is, setting by setting: under setting [1], 2.38 ± 0.14; under setting [2], 2.28 ± 0.44.
As to LEDSTMGSVADTVARVLRGCLENM [PLK2], the protein stability index runs as follows: under setting [1], 2.79 ± 0.32; under setting [2], 2.96 ± 0.38.
LEGKTFYSKKDRPLCKSHAFSHV [PDLIM7] showed a protein stability index under setting [3] of 3.36 ± 0.44 and a protein stability index under setting [4] of 3.83 ± 0.75.
With LEISDQEVLEWYTAKDFIVGKSLT [EFHC1], the protein stability index by setting is: under setting [1], 3.06 ± 0.22; under setting [2], 2.92 ± 0.3.
The corresponding values for LEIVGREGVSLTAVLTTHHHWDHA [HAGHL] are 2.59 ± 0.34 and 2.32 ± 0.44.
The corresponding values for LELLSAPELKSLAKTFHLVNPNGQ [FAN1] are 2.74 ± 0.13 and 2.84 ± 0.095.
The sequence LETRFKIQQLLEPQQYMAFLPHHI [FBXO34] registered a protein stability index under setting [1] of 2.36 ± 0.49 and a protein stability index under setting [2] of 2.27 ± 0.33.
The matching figures for LFILSTLVVDYIDEGRLVLEFSLL [SOAT1]: 3.28 ± 0.57 and 2.88 ± 0.96.
The corresponding values for LGGRALMNCLPSNRTLWRLDLAGN [LRRC45] are 2.5 ± 0.41 and 2.32 ± 0.28.
The corresponding values for LGPELIKESNANPIFMRKDTKMSF [DPCD] are 3.46 ± 0.084 and 3.43 ± 0.2.
Take LGSWLVPFAYLTVLDLSKSLSAAL [POMT2]: the protein stability index is, setting by setting: under setting [1], 3.19 ± 0.56; under setting [2], 3.34 ± 0.37.
In the case of LHAELCQAGSSQGLSLCQFQNFSL [LPCAT4], the protein stability index reads like this: under setting [1], 2.42 ± 0.33; under setting [2], 2.21 ± 0.13.
